Like-named read-outs stand apart in the source and are kept apart here.
T1: BclB (UniProt Q9HD36)
T1 sequence (looked up): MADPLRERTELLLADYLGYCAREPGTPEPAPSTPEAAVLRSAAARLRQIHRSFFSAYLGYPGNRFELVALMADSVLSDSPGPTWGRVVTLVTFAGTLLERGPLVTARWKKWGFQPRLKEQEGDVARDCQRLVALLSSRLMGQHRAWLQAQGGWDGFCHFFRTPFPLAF


Tests used:
[1] = target: Sag1 (Saccharomyces cerevisiae) (UniProt P20840); experiment: cell-based or functional assay
[2] = target: Sag1 (Saccharomyces cerevisiae) (UniProt P20840); experiment: cell-based or functional assay; remark: listed apart in the source
[3] = target: BclW (UniProt Q92843); experiment: affinity as tabulated ('known affinities'); method not stated
[4] = target: BclXL (UniProt Q07817); experiment: as above
[5] = target: Mcl1 (UniProt Q07820); experiment: as above
[6] = target: T1, BclB; experiment: as above
[7] = target: Bcl2 (UniProt P10415); experiment: as above
[8] = target: Bfl1 (UniProt Q16548); experiment: as above
Chain of Bfl1 (Q16548 1-153 limits assumed): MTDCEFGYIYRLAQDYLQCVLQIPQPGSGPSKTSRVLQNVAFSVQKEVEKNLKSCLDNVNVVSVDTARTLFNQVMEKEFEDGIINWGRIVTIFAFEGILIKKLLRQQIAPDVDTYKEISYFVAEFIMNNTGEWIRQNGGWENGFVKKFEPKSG

Chain of Bcl2 (P10415 1-207 limits assumed): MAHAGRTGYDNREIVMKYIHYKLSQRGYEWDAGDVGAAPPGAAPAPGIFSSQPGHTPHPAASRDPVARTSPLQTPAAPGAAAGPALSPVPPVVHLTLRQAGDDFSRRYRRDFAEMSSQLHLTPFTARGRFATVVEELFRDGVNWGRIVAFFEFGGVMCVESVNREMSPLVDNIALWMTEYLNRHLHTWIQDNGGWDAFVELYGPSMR
Chain of Sag1 (Saccharomyces cerevisiae) (P20840 20-627): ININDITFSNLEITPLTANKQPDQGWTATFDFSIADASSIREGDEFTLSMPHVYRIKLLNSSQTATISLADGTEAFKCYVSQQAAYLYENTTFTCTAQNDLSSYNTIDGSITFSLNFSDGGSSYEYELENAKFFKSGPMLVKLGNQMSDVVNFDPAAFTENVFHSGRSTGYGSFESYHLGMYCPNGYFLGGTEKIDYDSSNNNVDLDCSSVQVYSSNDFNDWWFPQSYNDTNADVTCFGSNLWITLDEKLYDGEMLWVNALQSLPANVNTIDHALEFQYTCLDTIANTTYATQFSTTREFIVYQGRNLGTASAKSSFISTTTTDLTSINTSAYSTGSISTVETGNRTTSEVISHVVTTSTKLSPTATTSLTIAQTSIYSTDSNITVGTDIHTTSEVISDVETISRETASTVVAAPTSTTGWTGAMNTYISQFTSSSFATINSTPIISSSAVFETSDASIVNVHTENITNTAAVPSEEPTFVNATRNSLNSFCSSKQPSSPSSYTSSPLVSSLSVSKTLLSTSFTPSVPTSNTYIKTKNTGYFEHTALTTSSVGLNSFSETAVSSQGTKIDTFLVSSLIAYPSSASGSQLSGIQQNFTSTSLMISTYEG
Chain of BclXL (Q07817 1-209 limits assumed): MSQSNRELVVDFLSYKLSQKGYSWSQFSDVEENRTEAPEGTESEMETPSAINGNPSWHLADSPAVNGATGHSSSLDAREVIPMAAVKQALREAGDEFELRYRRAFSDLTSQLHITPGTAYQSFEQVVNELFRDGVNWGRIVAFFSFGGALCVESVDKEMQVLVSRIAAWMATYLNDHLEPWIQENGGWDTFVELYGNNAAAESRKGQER
Chain of Mcl1 (Q07820 whole entry): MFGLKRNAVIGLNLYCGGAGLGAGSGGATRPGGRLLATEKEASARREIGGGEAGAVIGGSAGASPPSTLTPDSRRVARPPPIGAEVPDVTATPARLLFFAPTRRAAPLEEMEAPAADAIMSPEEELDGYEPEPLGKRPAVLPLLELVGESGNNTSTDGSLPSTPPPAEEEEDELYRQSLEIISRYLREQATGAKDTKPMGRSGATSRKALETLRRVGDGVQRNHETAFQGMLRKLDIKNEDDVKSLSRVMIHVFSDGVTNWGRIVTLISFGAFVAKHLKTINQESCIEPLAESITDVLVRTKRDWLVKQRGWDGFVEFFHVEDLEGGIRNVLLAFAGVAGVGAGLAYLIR
Chain of BclW (Q92843 1-182 limits assumed): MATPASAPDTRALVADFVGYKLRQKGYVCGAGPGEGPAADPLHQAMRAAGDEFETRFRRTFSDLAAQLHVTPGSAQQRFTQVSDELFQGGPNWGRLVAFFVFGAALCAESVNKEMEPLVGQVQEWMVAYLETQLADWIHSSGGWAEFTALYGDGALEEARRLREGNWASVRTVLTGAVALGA

Molecule | mating efficiency [1] | mating efficiency [2] | Kd [3] | Kd [4] | Kd [5] | Kd [6] | Kd [7] | Kd [8]
Aga2 (from UniProt P32781 19-87) | > 50% | 57.1% | – | – | – | – | – | –
BINDI-BCDP01 (designed binder, from a related filing) ADPKKVLDKAKDQAENRVRELKQELERLYKEARKLDLTQEMRRKLEWRYIAAMLKAIGDILNAIAQAENEADKLKKAGLVNSQQLDELRRRLEELAKEAARKAHDYGREFQLKLEY | – | – | 2010 nM | 20.2 nM | 0.46 nM | 8.33 nM | 17.3 nM | 518 nM
XINDI-XCDP07 (designed binder, from a related filing) ADPKKVLDKAKDRAENVVRKLKKELEELYKEARKLDLTQEMRDRIRLAAIAARIAAFGDIFHAIMEALEEARKLKKAGLVNSQQLDELKRRLEELDEEAAQRAEKLGKEFELKLEY | – | – | 14.9 nM | 0.59 nM | 17.4 nM | 107 nM | 3.81 nM | 7050 nM

Source: patent US20210054365A1
